Data on two substances can be found in paper PMC11808191.

Assay [1] addresses recombinant protein HR212 (HR2–linker 1–HR1–linker 2–HR2) (SARS-CoV-2 Wuhan hu-1 strain). Put plainly: native gel or EMSA; native PAGE of purified HR212. For orientation: In EMSA bound probe runs differently from free probe, usually more slowly.
Assay [2] has the same target. Put plainly: SPR; Biacore 3000; HR212 fixed to a flow cell of a CM5 sensor; HR1 at 12.5, 25, 50, 100, 200 nM flowed over; 25°C.

Turning to “recombinant protein HR212 (HR2–linker 1–HR1–linker 2–HR2)”, the stoichiometry N (commonly the number of molecules, sites or subunits per partner or assembly) in assay [1] came out at 3.

As to “HR1 (heptad repeat 1 domain of the SARS-CoV-2 spike S2 subunit) (domain or fragment)”, in assay [2], the equilibrium dissociation constant (Kd) (in general, a measure of binding affinity in units of concentration) turned out to be 0.12 nM; the koff (as a rule, the rate constant with which the complex falls apart) was determined as 1.4e-05 s⁻¹; the kon (in general, a measure of how fast the partners come together) came out at 120000 M⁻¹ s⁻¹.
